From paper PMC4161438 (PLoS Pathogens, 2014)

Legend:
elastase = target: T1, elastase (Homo sapiens, UniProt P08246); conditions: pathologic conditions associated with neutrophil dysfunction; ref [22]; cited from earlier work
T1 construct: purchased Elastin Products Company, Inc. (Owensville, MO, USA)
T1 sequence (P08246 30-267): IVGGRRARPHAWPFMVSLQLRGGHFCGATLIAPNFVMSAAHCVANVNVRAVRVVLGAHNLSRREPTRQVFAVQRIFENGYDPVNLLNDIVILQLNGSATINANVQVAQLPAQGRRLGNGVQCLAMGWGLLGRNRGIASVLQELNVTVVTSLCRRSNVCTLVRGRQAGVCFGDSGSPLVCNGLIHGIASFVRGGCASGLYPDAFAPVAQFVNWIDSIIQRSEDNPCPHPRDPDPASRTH
Excerpt: Neutrophils also release granule contents containing enzymes such as elastase, proteinase-3, and cathepsin G. Elastase, a particularly inflammatory enzyme, interferes with thrombomodulin function, and cleaves TF pathway inhibitor (TFPI), the physiological inhibitor of the extrinsic pathway. […] Elastase also induces proteinase-activated receptor activation, contributes to cytokine production and processing, inactivates metalloprotease inhibitors, deg ...

neutrophil = conditions: migration induced by PAF, fMLP or IL-8; ref [49]–[51]; cited from earlier work
Excerpt: Once released, serine protease may bind to the cell surface and remains relatively inaccessible to inhibitors, in contrast to soluble enzymes, [48]. Elastase and other serine proteases reportedly modulate several functions of neutrophils, including chemokine activation and degradation, cell recruitment, receptor activation, activation of lymphocytes, NET formation, and cleavage of adhesion molecules, apoptotic proteins, and anticoagulants. Assay ...

inflamed microvessels = system: inflamed microvessels; parameters: method as in PMID 8400269; conditions: intravital microscopy of inflamed microvessels; ref [50]; cited from earlier work
neutrophils [1] = experiment: Neutrophil-induced coagulation; format: cell-based, human; conditions: neutrophils with PMA 50 nM, 3 h; 370 sec without PMA
Experimental: (§1) A) Platelet aggregation. Washed human platelets were stimulated with elastase only (500 nM, left panel), or cathepsin G only (110 nM, middle tracing), or elastase followed by cathepsin G (right tracing). […] Aggregation response was monitored by turbidimetry using a Lumi-Aggregometer. D) TFPI cleavage. […] After 2 h, reactions were stopped by addition of LDS loading buffer (under reducing conditions, 10 mM DTT), boiled for 5 min, and loaded in 4–12% Nu-PAGE gel. Gels were Coomassie Blue-stained. E) Neutrophil-induced coagulation. […] Fifty µl of this suspension was added to 50 µl of plasma, and reactions were started by addition of CaCl2 (12.5 mM, final concentration)(*, p<0.05).
(§2) Whole blood (5 mL collected in 0.5 mL of 3.2% sodium citrate) from healthy donors was diluted in an equal volume of PBS, layered over 5 mL of HISTOPAQUE solution (10771, Sigma Aldrich), and centrifuged for 40 min, at 400×g, at room temperature. The lower interphase having granulocytes was collected and transferred to a 15-ml Falcon tube and resuspended in 10 ml ammonium chloride lysis buffer (1.7 M NH4Cl, […], 1 mM EDTA) to lyse red blood cells. Lysis was carried out twice followed by centrifugation for 10 min at 400×g. Neutrophils were washed with PBS and resuspended at 1×10^6 cells/mL in high glucose DMEM (GIBCO). Neutrophils were kept on ice. […]

neutrophils [2] = experiment: NETs formation; format: cell-based, human; conditions: PMA 5 nM, 3 h, no inhibitor
Experimental: Left panel, non-activated neutrophil (no PMA). Formation of NETs was visualized under confocal microscopy, using antibody against citrullinated histone. Representative experiment is shown (4 different donors). B) Quantification. Performed as described in Methods.
as §2, with “400×g.” for “400×g. Neutrophils were washed with PBS and resuspended at 1×10^6 cells/mL in high glucose DMEM (GIBCO). Neutrophils were kept on ice.”
Cells were fixed with 500 µl of 4% paraformaldehyde (final concentrations) for 10 min, washed 3 times with PBS and incubated for 10 min with blocking solution (PBS, 10%FBS, 5 mg/ml BSA). […] NETs were quantified according to Farley et al. Briefly, NETs were identified on digitalized images as Hoechst-positive fibrils emanating from cells with an overall length at least twice as long as the cell diameter and were counted for at least two fields of view per variable. Results were expressed as the percentage of NETs/total number of granulocytes.

bacterial strains = experiment: Minimum inhibitory concentration (MIC), control over all strains; format: cell-based; conditions: ciprofloxacin quality control, 1024-0 ng/ml, each strain; not shown
normal human plasma [3] = experiment: aPTT; format: biochemical; conditions: heparin control 10 µg/ml; not shown
Experimental: (§3) aPTT and PT were evaluated on a STart 4 stago coagulometer (Diagnostica Stago, Parsippany, NJ, USA). Freeze-dried, citrated, normal human plasma was resuspended in ultra-pure water. […] Then, 50 µl of pre-warmed aPTT reagent (STA PTT; Diagnostica Stago, Asnières sur Seine, France) was added and incubated for an additional 2 min. CaCl2 (50 µl at 25 mM) was added to start reactions. […] Then, 100 µl of the PT reagent (NEOplastine CI plus; Diagnostica Stago) was added. Time for clot formation was recorded in duplicate.

normal human plasma [4] = experiment: PT; format: biochemical; conditions: heparin control 100 µg/ml; not shown
Experimental: as §3

washed human platelets [5] = experiment: Platelet aggregation, elastase followed by cathepsin G; format: cell-based; conditions: elastase 500 nM, no inhibitor
Experimental: as §1
(§4) Platelet-rich plasma was obtained by plateletpheresis from medication-free platelet donors at the Department of Transfusion Medicine (NIH blood bank). Washing of platelets and platelet aggregation were performed in a Lumi-aggregometer (Chronol-Log, Haverstown, MD, USA) as described, [87].

[6] = system: human neutrophil elastase; experiment: TFPI cleavage by elastase (SDS/PAGE); format: biochemical; conditions: elastase 0.8 µg/ml, TFPI 1 µg, 2 h at RT, no inhibitor
Experimental: as §1
After 2 h at RT, reactions were stopped by addition of Laemmli buffer (supplemented with dithiothreitol) and boiled for 5 min. Proteins were separated by 4% to 12% NuPAGE (MES buffer); gels were stained with Coomassie Blue R-250 and destained with 40% methanol. See Blue molecular weight (mol. wt.) markers were used (Invitrogen).

NETs formation = system: NETs formation; parameters: method as in 2 sources, one per row (each row's own in cited_ref): ref [38], [55] = [38]; PMID 20974816; doi:10.1083/jcb.201006052; 38 Papayannopoulos V , Metzler KD , Hakkim A , Zychlinsky A ( 2010 ) Neutrophil elastase and myeloperoxidase regulate the formation of neutrophil extracellular traps . J Cell Biol 191 : 677 – 691 . 20 || [55]; PMID 23635526; doi:10.1159/000348676; 55 Braian C , Hogea V , Stendahl O ( 2013 ) Mycobacterium tuberculosis- induced neutrophil extracellular traps activate human macrophages . J Innate Immun 5 : 591 – 602 . 23635526 10.1159/000348676 PM ||| ref [56] = [56]; PMID 23002442; doi:10.4049/jimmunol.1201167; 56 Farley K , Stolley JM , Zhao P , Cooley J , Remold-O'Donnell E ( 2012 ) A serpinB1 regulatory mechanism is essential for restricting neutrophil extracellular trap generation . J Immunol 189 : 4574; conditions: exogenously added, internalized, translocates into nucleus; ref [56]; cited from earlier work
monocyte-like cells = system: monocyte-like cells; parameters: method as in PMID 16352738; conditions: internalized by monocyte-like cells, ref [57], cited from earlier work
neutrophil elastase [7] = target: T2, neutrophil elastase (Homo sapiens, UniProt P08246); experiment: SPR
T2 chain: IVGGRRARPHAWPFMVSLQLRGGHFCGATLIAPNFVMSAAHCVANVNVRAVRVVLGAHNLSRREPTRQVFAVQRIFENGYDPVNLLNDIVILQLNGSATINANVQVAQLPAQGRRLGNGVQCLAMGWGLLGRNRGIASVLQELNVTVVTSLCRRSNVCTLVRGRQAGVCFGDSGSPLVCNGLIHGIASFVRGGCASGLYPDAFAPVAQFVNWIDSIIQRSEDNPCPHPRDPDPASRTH

neutrophil elastase [8] = target: T2, neutrophil elastase; experiment: enzyme inhibition assay (chromogenic substrate, Cheng-Prusoff)
washed human platelets [9] = experiment: Platelet aggregation, cathepsin G-induced; format: cell-based; conditions: low dose cathepsin G 110 nM, no inhibitor
Experimental: as §1, §4

Cc1c(-c2ccnn2C)cc(C(=O)NCc2ccc(S(C)(=O)=O)cn2)c(=O)n1-c1cccc(C(F)(F)F)c1 [AZD9668]
clinical trial results (elastase): mixed results

CO[C@H]1C(=O)N2C(C(=O)N3CCC[C@H]3C(=O)O)=C(COC(C)=O)CS(=O)(=O)[C@H]12 [L658758, reference compound]
chemotactic neutrophil functions (neutrophil): blocks chemotactic neutrophil functions | neutrophil transmigration (inflamed microvessels): inhibition of neutrophil transmigration

CCCCCCCCCCCCCC(=O)O[C@@H]1[C@@H](C)[C@@]2(O)[C@@H](C=C(CO)C[C@]3(O)C(=O)C(C)=C[C@@H]23)[C@@H]2C(C)(C)[C@]12OC(C)=O [PMA, Phorbol 12-myristate 13-acetate, reference compound]
clotting time (neutrophils [1]): 250 s | induction of NETs (neutrophils [2]): induces a strong response

O=C(O)c1cn(C2CC2)c2cc(N3CCNCC3)c(F)cc2c1=O [ciprofloxacin]
MIC (bacterial strains): < 1 µg/mL

CC(C)(C)C(=O)Oc1ccc(S(=O)(=O)Nc2ccccc2C(=O)NCC(=O)O)cc1 [sivelestat]
clinical trial results (elastase): mixed results

heparin
aPTT (normal human plasma [3]): prolonged | PT (normal human plasma [4]): prolonged

B1: elastase: neutrophil elastase, enzyme used as stimulus (protein, UniProt P08246 30-267, looked up)
Neutrophil elastase: IVGGRRARPHAWPFMVSLQLRGGHFCGATLIAPNFVMSAAHCVANVNVRAVRVVLGAHNLSRREPTRQVFAVQRIFENGYDPVNLLNDIVILQLNGSATINANVQVAQLPAQGRRLGNGVQCLAMGWGLLGRNRGIASVLQELNVTVVTSLCRRSNVCTLVRGRQAGVCFGDSGSPLVCNGLIHGIASFVRGGCASGLYPDAFAPVAQFVNWIDSIIQRSEDNPCPHPRDPDPASRTH
shape change or aggregation by elastase only (washed human platelets [5]): does not promote shape change or aggregation | TFPI cleavage by elastase [6]: cleaves TFPI

B2: serpin B1: exogenously added elastase inhibitor (protein, UniProt P30740 1-379, looked up)
Leukocyte elastase inhibitor: MEQLSSANTRFALDLFLALSENNPAGNIFISPFSISSAMAMVFLGTRGNTAAQLSKTFHFNTVEEVHSRFQSLNADINKRGASYILKLANRLYGEKTYNFLPEFLVSTQKTYGADLASVDFQHASEDARKTINQWVKGQTEGKIPELLASGMVDNMTKLVLVNAIYFKGNWKDKFMKEATTNAPFRLNKKDRKTVKMMYQKKKFAYGYIEDLKCRVLELPYQGEELSMVILLPDDIEDESTGLKKIEEQLTLEKLHEWTKPENLDFIEVNVSLPRFKLEESYTLNSDLARLGVQDLFNSSKADLSGMSGARDIFISKIVHKSFVEVNEEGTEAAAATAGIATFCMLMPEENFTADHPFLFFIRHNSSGSILFLGRFSSP
NETs formation (NETs formation): inhibits NETs formation

B3: secretory leukocyte proteinase inhibitor (protein, UniProt P03973 26-132, looked up)
Antileukoproteinase: SGKSFKAGVCPPKKSAQCLRYKKPECQSDWQCPGKKRCCPDTCGIKCLDPVDTPNPTRRKPGKCPVTYGQCLMLNPPNFCEMDGQCKRDLKCCMGMCGKSCVSPVKA
chemotactic neutrophil functions (neutrophil): blocks chemotactic neutrophil functions | p65 binding (monocyte-like cells; binds NF-κB binding sites): inhibit p65 binding | TNF-α and IL-8 generation (monocyte-like cells): promote inhibition of TNF-α and IL-8 generation

B4: Agaphelin 1-58 (protein)
chain: DINSEMATCACQLIYRPVCASNNESYSNECVLKCASETPTGRSIGLHKVKDGNCNGEF
Kd (neutrophil elastase [7]): 17.4 nM | Ki (neutrophil elastase [8]): 9.22 nM

B5: cathepsin G: neutrophil protease used as platelet agonist (protein, UniProt P08311 21-244, looked up)
Cathepsin G: IIGGRESRPHSRPYMAYLQIQSPAGQSRCGGFLVREDFVLTAAHCWGSNINVTLGAHNIQRRENTQQHITARRAIRHPQYNQRTIQNDIMLLQLSRRVRRNRNVNPVALPRAQEGLRPGTLCTVAGWGRVSMRRGTDTLREVQLRVQRDRQCLRIFGSYDPRRQICVGDRRERKAAFKGDSGGPLLCNNVAHGIVSYGKSSGVPPEVFTRVSSFLPWIRTTMRS
platelet activation by cathepsin G only (washed human platelets [9]): activate platelets

B6: Eglin C: pharmacologic inhibitor of elastase (protein, UniProt P01051 1-70, looked up)
Eglin C: TEFGSELKSFPEVVGKTVDQAREYFTLHYPQYDVYFLPEGSPVTLDLRYNRVRVFYNPGTNVVNHVPHVG
chemotactic neutrophil functions (neutrophil): blocks chemotactic neutrophil functions | neutrophil transmigration (inflamed microvessels): inhibition of neutrophil transmigration
